Measured values from PMC11879393 (Nucleic Acids Research, 2025).

Biological target: T1, Rec27 (untagged, His6-SUMO tag removed by Ulp1) (S. pombe, UniProt Q9USR4 1-125)
T1 sequence (looked up): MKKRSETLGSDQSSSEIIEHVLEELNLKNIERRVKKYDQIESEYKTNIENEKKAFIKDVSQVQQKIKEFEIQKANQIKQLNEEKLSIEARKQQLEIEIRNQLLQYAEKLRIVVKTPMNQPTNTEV
Experiment: mass photometry

| Binder | stoichiometry N |
| --- | --- |
| Mug20 (untagged) (natural protein, S. pombe, UniProt Q9HGN4 1-151, looked up) MSEIITSLQTELSNRHANMVSEAVLAFSEHHDSALHSYFLNARVKDVILESLRTTEEKLRALDKLQLDASKNLSNLLVEYNSINAELESVNSKISSISSQEYALEEFQALSQNFEKNLVQHRRNSQNKLKCAMEKLKMIETSTHKAILDNF | 1 |
| Rec25 (untagged) (natural protein, S. pombe, UniProt Q9C115 1-150, looked up) MVKGSVTNTSSIVKQFEKSSIKHETETIAFAKQFINECIREFQEQKDNVVEEKNTDQNHQNQNQEGVIIEIYQELLQKVDLISSELRQNLSSLQLRFQEVERDTGHDLLNVLNSLSQEARLAQKVLEEDGSQQGSQLIQGLLTCFQSTGN | 1 |
